B1: LINE1-full (parent)
chain: UACGUAGGUGGUUUUCCCCUGAUAGUGCUAAGGGGGCCUGGAAGUUUGGACUGGGCAGAGCUCAACACAGCGUGGCAAAGUGGCUGUGGCUAGACUGCCUCUCUGGAUUCCUCGUCACUCAGCAGGGCAUCUCUGAGAGAAAUGCC

Variants of: B1
Assay: self-cleavage, relative activity (ratio to wild type); higher = more cleavage; in vitro, sequencing; the parent is a self-cleaving ribozyme

Row | Variant | self-cleavage
1 | C110A A121U | 1.32
2 | C19G | 0.35
3 | A57G A142U | 0.38
4 | A67U C110U | 0.14
5 | A43U U85C | 0.16
6 | U29A A50U | 0.89
7 | C51U U85C | 0.19
8 | U26A A129U | 1.06
9 | U12G U91C | 1.02
10 | C113A A142G | 0.47
11 | C37U U39C | 1.26
12 | A2C U5C | 1.12
13 | G83A A142G | 0.97
14 | G122A A136G | 1.54
15 | U130G U143C | 1.5
16 | A94U A142C | 0.09
17 | G40A U112C | 0.89
18 | U13A A30G | 0.97
19 | C90U U134G | 0.04
20 | A69G C128U | 0.63
21 | A79G G126A | 1.51
22 | U45C U104A | 1.43
23 | U87G A124C | 0.32
24 | C103U A140G | 1.44

Row | Variant | self-cleavage
25 | U47C C120U | 1.72
26 | U46A C51U | 1.35
27 | C76U | 2.18
28 | U14A G144A | 1.12
29 | U109C G127A | 1.49
30 | U15A A79U | 1.09
31 | U23A A57G | 0.94
32 | A6G U12C | 0.73
33 | G4A U26A | 0.82
34 | U87A C131U | 0.08
35 | U39A U96C | 0.19
36 | U45C A124U | 1.58
37 | G36A U102C | 1.14
38 | U29A A129G | 1.11
39 | U104C A121U | 1.59
40 | C3U U20C | 0.44
41 | U14A A22U | 1.6
42 | U52A A67G | 0.38
43 | C51A | 1.31
44 | U20C G27A | 1.12
45 | U130C A141G | 1.55
46 | C111U G114A | 1.12
47 | U104C A107G | 1.86
48 | G44A U73C | 1.68

Row | Variant | self-cleavage
49 | U39G A92U | 1.06
50 | U29A A42G | 1.65
51 | U5C A59G | 0.32
52 | C120U A121G | 0
53 | G10A U20C | 1.6
54 | U109C A140U | 1.15
55 | C3U C16U | 0.76
56 | C98U | 0.4
57 | A69U A124U | 0.09
58 | U5C A22G | 0.57
59 | A24G C37U | 0.83
60 | U5C G55A | 0.5
61 | G32A A78G | 0.47
62 | A64C U96C | 0.18
63 | A30U G40U | 0.97
64 | U12C A79G | 1.1
65 | U39A A138U | 1.75
66 | C90U U112A | 0.04
67 | U39G | 1.46
68 | U45G G88U | 0.06
69 | G97A A107G | 0.13
70 | A30U G114C | 1.25
71 | U87A G97U | 0.08
72 | U52C A136U | 0.81

Row | Variant | self-cleavage
73 | G41A U47A | 1.77
74 | A2U A77G | 1.77
75 | A43G U102G | 0.84
76 | A22G A69C | 0
77 | U73C G88A | 0.06
78 | U96A U108A | 0.13
79 | G60U U62C | 0.08
80 | U102C C116U | 1.72
81 | U14G U87C | 0.41
82 | U100G U130C | 2.21
83 | C19A G32A | 0.91
84 | U39A A107U | 1.43
85 | A57G A64G | 0.3
86 | G82A A92G | 0.04
87 | U13G U73A | 2.54
88 | G7A U134C | 1.17
89 | U14C G48U | 1.15
90 | A43G A69G | 0.58
91 | A57G G89A | 0.04
92 | G35U A78U | 2.1
93 | U9C U109A | 1.37
94 | G75U U104C | 1.32
95 | G34C A50U | 1.81
96 | A77U U115C | 1.22

Row | Variant | self-cleavage
97 | A124G A140U | 0.94
98 | C56U U119C | 0.21
99 | U108A U132C | 1.65
100 | U47C G125U | 1.39
101 | A64U C110A | 0.44
102 | G8U | 1.39
103 | C95U | 0.14
104 | U12C G83U | 1.07
105 | A6U A124G | 0.6
106 | A2U A138U | 1.01
107 | G93A G122C | 0.01
108 | A22U C38U | 1.18
109 | U12C U46G | 0.82
110 | A43G U100A | 0.89
111 | U29A A124G | 0.91
112 | A129U U134C | 1.22
113 | A42G C113U | 1.12
114 | U5C U39A | 0.91
115 | U15C A79G | 1.18
116 | A64G U119A | 0.32
117 | U5A A6U | 1.23
118 | C68U U130C | 0.19
119 | C56A C120U | 0.17
120 | U23C A67U | 0.18

Row | Variant | self-cleavage
121 | U100C U112A | 1.74
122 | U45C A92G | 0.08
123 | A117C A138U | 2.44
124 | C28U A141G | 1.53
125 | C17U A138G | 1.06
126 | A107G A117G | 1.85
127 | G88A A107C | 0.03
128 | C17U G49U | 1.69
129 | G36A U81A | 2.04
130 | G32U C116U | 1.15
131 | A43G U96C | 0.09
132 | A43G G127U | 1.87
133 | A30U U52C | 1.09
134 | U20A A22U | 1.56
135 | A2G U15C | 0.89
136 | C28U U115G | 1.3
137 | A59G U91A | 0.09
138 | A2G U100C | 0.62
139 | U85G | 0.13
140 | U13G U143A | 1.33
141 | U12A A42G | 1.28
142 | U62A C66U | 0.01
143 | U47A A79G | 1.05
144 | U5C U46C | 0.99

Row | Variant | self-cleavage
145 | G53U A94G | 0.2
146 | U15C A117G | 1.83
147 | U20A U91C | 0.65
148 | U85C U143C | 0.1
149 | U47G A129G | 1.31
150 | C66U U85G | 0.03
151 | G4A A121U | 1.22
152 | A77U A138U | 1.27
153 | A92C A142G | 0.33
154 | U15G U132C | 1.81
155 | A43U G122A | 1.02
156 | C51A G53A | 1.92
157 | U5A A65C | 0.08
158 | A69C A121U | 0.04
159 | A69C A121G | 0.11
160 | U62C A129G | 0.06
161 | U45C U130G | 1.9
162 | U9G A124U | 1.12
163 | U100A U119A | 0.71
164 | A107G G127A | 1.81
165 | G80A U87C | 0.2
166 | C103A A140G | 1.23
167 | C71G A140U | 0.53

From the RNAGym collection of RNA variant scans (doi:10.7554/elife.90254)
